The target of assay [1] is T1, Mono-ubiquitin (Sigma Aldrich) (UniProt P0CG48 1-76). As to the kind of experiment: SPR (BiaCore 3000), captured via GST on anti-GST chip, mono-ubiquitin injected, steady state. A general note: SPR reads the build-up and loss of mass on a sensor chip optically.
Excerpt: (§1) (FIG. 4C) Mono-ubiquitin interaction with single and tandem UBA domains from hHR23A and ubiquilin1 was monitored by real-time surface plasmon resonance (SPR).
All injections were done as randomized duplicates, and each experiment was repeated in triplicate. All the experimental profiles were double referenced using the Scrubber 2.0 software (BioLogic Software), i.e. both the signals from a His6-GST-SV5 reference surface and from blank experiments (running buffer instead of protein) were subtracted. The steady-state responses (Req) were estimated by averaging the signal monitored during the last 15 seconds of each injection. The Req values were plotted against the concentration (C) of mono or tetra-ubiquitin and fitted using the following equation:
For assay [2], the target named is T1, Mono-ubiquitin (Sigma Aldrich). The experiment in a line: SPR (Biacore), GST fusion captured on anti-GST antibody chip (150-220 RU), mono-ubiquitin injected in a 2-fold dilution series, steady-state fit.
Description: as §1
To measure real-time interactions, all experiments were performed with a BiaCore 3000 instrument, at 25° C., using HBS EP (0.01 B M HEPES pH 7.4, 0.15 M NaCl, 3 mM EDTA, 0.005% surfactant P20) (BiaCore) as running buffer. Anti GST antibody (BiaCore) was covalently immobilized on a CM5 chip (carboxy methylated dextran) from BiaCore with a density of approximately 9000 resonance units (RU≈pg·mm-2), using standard amino-coupling techniques and reagents (NHS, EDC, ethanolamine) from BiaCore. Purified GST-tagged polypeptide comprising ubiquitin binding domains of p62 protein and GST were diluted in running buffer and captured to similar levels in different flow cells. Single and tandem GST-fused UBA domains were captured on the sensor chip at low (30-55 RU) and high (130-220 RU) densities.
All injections were done as randomized duplicates, and each experiment was repeated in triplicate. […] The steady-state responses (Req) were estimated by averaging the signal monitored during the last 15 seconds of each injection.

Where no end group is shown, it is not given here.

B1: Ubiquilin1 UBA (single UBA domain, GST-fused) (other)
chain: VNPQLQNPEVRFQQQLEQLSAMGFLNREANLQALIATGGDINAAIERLLGSQPS
modifications: not fully specified (C-terminus); also: GST-fused, PreScission protease site and His6 tag, construct limits not given here
notes: not shown: glutathione-S-transferase (GST) encoded by the pGEX-6P1 vector (Amersham); PreScission protease site and His6 tag with vector linker residues
B1: the “binding stoichiometry (molar ratio ubiquitin:UBA)” value in assay [1] turned out to be 1 ubiquitin per UBA. Moreover, the Kd (commonly the concentration at which binding is half-saturated) in assay [2] stood at 41.3 µM.

Source of the values: patent publication US20090220470A1 (CENTRO DE INVESTIGACION COOPERATIVA EN BIOCIENCIAS CIC …, published 2009).
